Results taken from the PETadex activity labels (doi:10.1016/j.bbalip.2005.11.003).

Tests used:
Conditions in all cases: pH 7; 25 °C
[1] = substrate: p-NP-C4
[2] = substrate: triacetin
[3] = substrate: tributyrin
[4] = substrate: tripropionin
[5] = substrate: vinyl acetate
[6] = substrate: vinyl butyrate
[7] = substrate: vinyl laurate
[8] = substrate: vinyl propionate

Row | Protein | Km [1] | kcat [1] | kcat/Km [1] | Km [3] | kcat [3] | kcat/Km [3] | Km [4] | kcat [4] | kcat/Km [4] | Km [5] | kcat [5] | kcat/Km [5] | Km [6] | kcat [6] | kcat/Km [6] | Km [7] | kcat [7] | kcat/Km [7] | Km [8] | kcat [8] | also measured
1 | unnamed (protein) MTEPTVARPDIDPVLKMLLDTFPVTFTAADGVEVARARLRQLKTPPELLPELRIEERTVGYDGLTDIPVRVYWPPVVRDNLPVVVYYHGGGWSLGGLDTHDPVARAHAVGAQAIVVSVDYRLAPEHPYPAGIDDSWAALRWVGENAAELGGDPSRIAVAGDSAGGNISAVMAQLARDVGGPPLVFQLLWYPTTMADLSLPSFTENADAPILDRDVIDAFLAWYVPGLDISDHTMLPTTLAPGNADLSGLPPAFIGTAEHDPLRDDGACYAELLTAAGVSVELSNEPTMVHGYVNFALVVPAAAEATGRGLAALKRALHA | 0.05 mM | 185 s⁻¹ | 3.7e+06 M⁻¹ s⁻¹ |  |  |  |  |  |  |  |  |  |  |  |  |  |  |  |  |  | 
2 | unnamed (protein) MAKKDEHLRKPEWLKIKLNTNENYTGLKKLMRENNLHTVCEEAKCPNIHECWAVRRTATFMILGSVCTRACRFCAVKTGLPTELDLQEPERVADSVALMNLKHAVITAVARDDQKDGGAGIFAETVRAIRRKSPFTTIEVLPSDMGGNYDNLKTLMDTRPDILNHNIETVRRLTPRVRARATYDRSLEFLRRAKEMQPDIPTKSSIMIGLGETKEEIIEVMDDLLANNVDIMAIGQYLQPTKKHLKVQKYYHPDEFAELKEIAMQKGFSHCEAGPLVRSSYHADEQVNEASKKRQAQA | 0.75 mM | 50 s⁻¹ | 66700 M⁻¹ s⁻¹ | 0.4 mM | 100 s⁻¹ | 250000 M⁻¹ s⁻¹ | 12 mM | 150 s⁻¹ | 12500 M⁻¹ s⁻¹ | 280 mM | 100 s⁻¹ | 357 M⁻¹ s⁻¹ | 40 mM | 635 s⁻¹ | 15900 M⁻¹ s⁻¹ | 5 mM | 145 s⁻¹ | 29000 M⁻¹ s⁻¹ | 75 mM | 1940 s⁻¹ | Km [2]: 110 mM; kcat [2]: 120 s⁻¹; kcat/Km [2]: 1090 M⁻¹ s⁻¹; kcat/Km [8]: 25800 M⁻¹ s⁻¹
3 | unnamed (protein) MEPGSKSVSRSDWQPEPHQRPITPLEPGPEKTPIAQPESKTLQGSNTQQKPASNQRPLTQQETPAQHDAESQKEPRAQQKSASQEEFLAPQKPAPQQSPYIQRVLLTQQEAASQQGPGLGKESITQQEPALRQRHVAQPGPGPGEPPPAQQEAESTPAAQAKPGAKREPSAPTESTSQETPEQSDKQTTPVQGAKSKQGSLTELGFLTKLQELSIQRSALEWKALSEWVTDSESESDVGSSSDTDSPATMGGMVAQGVKLGFKGKSGYKVMSGYSGTSPHEKTSARNHRHYQDTASRLIHNMDLRTMTQSLVTLAEDNIAFFSSQGPGETAQRLSGVFAGVREQALGLEPALGRLLGVAHLFDLDPETPANGYRSLVHTARCCLAHLLHKSRYVASNRRSIFFRTSHNLAELEAYLAALTQLRALVYYAQRLLVTNRPGVLFFEGDEGLTADFLREYVTLHKGCFYGRCLGFQFTPAIRPFLQTISIGLVSFGEHYKRNETGLSVAASSLFTSGRFAIDPELRGAEFERITQNLDVHFWKAFWNITEMEVLSSLANMASATVRVSRLLSLPPEAFEMPLTADPTLTVTISPPLAHTGPGPVLVRLISYDLREGQDSEELSSLIKSNGQRSLELWPRPQQAPRSRSLIVHFHGGGFVAQTSRSHEPYLKSWAQELGAPIISIDYSLAPEAPFPRALEECFFAYCWAIKHCALLGSTGERICLAGDSAGGNLCFTVALRAAAYGVRVPDGIMAAYPATMLQPAASPSRLLSLMDPLLPLSVLSKCVSAYAGAKTEDHSNSDQKALGMMGLVRRDTALLLRDFRLGASSWLNSFLELSGRKSQKMSEPIAEPMRRSVSEAALAQPQGPLGTDSLKNLTLRDLSLRGNSETSSDTPEMSLSAETLSPSTPSDVNFLLPPEDAGEEAEAKNELSPMDRGLGVRAAFPEGFHPRRSSQGATQMPLYSSPIVKNPFMSPLLAPDSMLKSLPPVHIVACALDPMLDDSVMLARRLRNLGQPVTLRVVEDLPHGFLTLAALCRETRQAAELCVERIRLVLTPPAGAGPSGETGAAGVDGGCGGRH | 1 mM | 190 s⁻¹ | 190000 M⁻¹ s⁻¹ | 0.4 mM | 18 s⁻¹ | 45000 M⁻¹ s⁻¹ | 15 mM | 7 s⁻¹ | 467 M⁻¹ s⁻¹ | 170 mM | 140 s⁻¹ | 824 M⁻¹ s⁻¹ | 11 mM | 210 s⁻¹ | 19100 M⁻¹ s⁻¹ | 3 mM | 31 s⁻¹ | 10300 M⁻¹ s⁻¹ | 70 mM | 105 s⁻¹ | kcat/Km [8]: 1500 M⁻¹ s⁻¹
